Source: the PETadex activity labels (doi:10.1016/j.bbrc.2018.11.148)

Experiments:
Conditions in all cases: pH 8; 30 °C; part of the chain shown
p-NP-C12 = substrate: p-NP-C12
p-NP-C2 = substrate: p-NP-C2
p-NP-C4 = substrate: p-NP-C4
p-NP-C6 = substrate: p-NP-C6
p-NP-C8 = substrate: p-NP-C8

B1: unnamed (protein)
chain: MNFPRASRLMQAAVLGGLMAVSAAATAQTNPYARGPNPTAASLEASAGPFTVRSFTVSRPSGYGAGTVYYPTNAGGTVGAIAIVPGYTARQSSIKWWGPRLASHGFVVITIDTNSTLDQPSSRSSQQMAALRQVASLNGTSSSPIYGKVDTARMGVMGWSMGGGGSLISAANNPSLKAAAPQAPWDSSTNFSSVTVPTLIFACENDSIAPVNSSALPIYDSMSRNAKQFLEINGGSHSCANSGNSNQALIGKKGVAWMKRFMDNDTRYSTFACENPNSTRVSDFRTANCS
Protein B1 has a Km (p-NP-C12) of 2280 µM, a kcat (p-NP-C12) of 1530 s⁻¹ and a kcat/Km (p-NP-C12) of 671000 M⁻¹ s⁻¹. For the same protein, the Km (p-NP-C2) was 431 µM, the kcat (p-NP-C2) was 1590 s⁻¹ and the kcat/Km (p-NP-C2) was 3.69e+06 M⁻¹ s⁻¹. It also gave a Km (p-NP-C4) of 315 µM, a kcat (p-NP-C4) of 1350 s⁻¹ and a kcat/Km (p-NP-C4) of 4.3e+06 M⁻¹ s⁻¹. The Km (p-NP-C6) was 52.8 µM, the kcat (p-NP-C6) was 1350 s⁻¹ and the kcat/Km (p-NP-C6) was 2.55e+07 M⁻¹ s⁻¹. For the same protein, the Km (p-NP-C8) was 48.1 µM, the kcat (p-NP-C8) was 519 s⁻¹ and the kcat/Km (p-NP-C8) was 1.08e+07 M⁻¹ s⁻¹.
